Entries after “also recorded” stand apart in the source; their conditions may differ.

The target of test [1] is IKKγ (Homo sapiens, UniProt Q9Y6K9). Nature of the test: In vitro GST pull-down binding to IKKγ. Conditions: GST pull-down with purified proteins, immunoblot. As for the experimental part:
FIG. 5B is a pair of photographs of immunoblots showing an interaction between MUC1-CD and IKKγ. GST- and GST-IKKγ bound to glutathione beads were incubated with purified MUC1-CD. The precipitates were immunoblotted (IB) with anti-MUC1-C antibodies. Commassie blue staining of the gel was performed to confirm that equal amounts of GST- and GST-IKKγ were used in the experiment. The molecular weights of proteins (as indicated on the left of the photographs) are expressed as kilodaltons (kDa).
FIG. 5C is a pair of photographs of immunoblots. GST- and the indicated GST-MUC1-CD fusion proteins or fragments bound to glutathione beads were incubated with purified IKKγ. The precipitates were immunoblotted (IB) with anti-IKKγ antibody. Commassie blue staining of the gel was performed to confirm that equal amounts of GST- and GST-MUC1 proteins were used in the experiment. The molecular weights of proteins (as indicated on the left of the photographs) are expressed as kilodaltons (kDa).
FIG. 5D is a pair of photographs of immunoblots. GST and the indicated GST-IKKγ fusion proteins bound to glutathione beads were incubated with MUC1-CD. The precipitates were immunoblotted (IB) with anti-MUC1-C antibody. Commassie blue staining of the gel was performed to confirm that equal amounts of GST- and GST-IKKγ proteins were used in the experiment. The molecular weights of proteins (as indicated on the left of the photographs) are expressed as kilodaltons (kDa).
FIG. 11B is a pair of photographs of an immunoblot and Coomassie blue stained gel. GST and the indicated GST-MUC1-CD fusion proteins (MUC1-CD and MUC1-CD(mSRM)) bound to glutathione beads were incubated with IKKγ. The precipitates were immunoblotted (IB) with an anti-IKKγ antibody. Commassie blue staining of the gel was performed to confirm that equal amounts of GST- and GST-MUC1-CD proteins were used in the experiment. The molecular weights of proteins (as indicated on the left of the photographs) are expressed as kilodaltons (kDa).
(§1) In vitro binding assays. Purified GST-MUC1-CD (glutathione s-transferase fused to the MUC1-CD polypeptide) was cleaved with thrombin to remove the GST moiety. GST, GST-IKKβ (DiDonato et al. (1997) Nature 388:548-554), GST-IKKβ (1-458), GST-IKKβ (458-756), GST-IKKγ (Prajapati et al. (2002) J. Biol. Chem. 277:24331-24339), GST-IKKγ (1-196) or GST-IKKγ (197-419) were then incubated with the MUC1-CD for 1 hour at 25° C. In other experiments, GST, GST-MUC1-CD, GST-MUC1-CD(1-45) or GST-MUC1-CD(46-72) were incubated with purified IKKβ or IKKγ. Adsorbates to glutathione-conjugated beads were analyzed by immunoblotting.
A general note: In western blotting, separated proteins are transferred to a membrane and probed.

The target of test [2] is T1, IKKβ (Homo sapiens, UniProt O14920).
T1 sequence (O14920 1-756): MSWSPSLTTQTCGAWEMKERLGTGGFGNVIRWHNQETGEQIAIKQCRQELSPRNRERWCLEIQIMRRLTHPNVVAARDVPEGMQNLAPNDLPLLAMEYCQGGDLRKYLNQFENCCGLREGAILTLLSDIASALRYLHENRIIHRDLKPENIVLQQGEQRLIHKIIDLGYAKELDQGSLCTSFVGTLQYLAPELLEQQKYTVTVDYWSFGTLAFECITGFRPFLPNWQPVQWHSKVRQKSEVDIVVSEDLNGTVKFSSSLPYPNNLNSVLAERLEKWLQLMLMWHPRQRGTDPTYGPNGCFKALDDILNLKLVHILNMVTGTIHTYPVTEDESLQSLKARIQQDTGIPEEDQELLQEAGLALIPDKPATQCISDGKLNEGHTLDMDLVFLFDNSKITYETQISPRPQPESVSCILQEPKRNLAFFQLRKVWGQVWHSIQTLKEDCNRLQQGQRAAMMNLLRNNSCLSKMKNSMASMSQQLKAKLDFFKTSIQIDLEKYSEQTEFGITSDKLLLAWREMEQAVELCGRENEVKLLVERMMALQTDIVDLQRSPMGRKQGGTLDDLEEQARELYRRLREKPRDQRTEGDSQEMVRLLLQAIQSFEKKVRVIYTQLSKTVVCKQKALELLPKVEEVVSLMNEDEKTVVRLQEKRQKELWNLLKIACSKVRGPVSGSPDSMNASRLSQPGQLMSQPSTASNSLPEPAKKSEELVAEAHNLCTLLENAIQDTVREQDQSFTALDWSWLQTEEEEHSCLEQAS
Nature of the test: In vitro GST pull-down binding to IKKβ. The settings on record: GST pull-down with purified proteins, immunoblot. As for the experimental part:
FIG. 4B is a pair of photographs of immunoblots. Recombinantly expressed, purified GST- and GST-IKKβ proteins bound to glutathione-agarose beads were incubated with purified MUC1-CD protein. The precipitates were immunoblotted (IB) with anti-MUC1-C antibodies. Input of the GST and GST-IKKβ proteins was assessed by Coomassie blue staining. The molecular weights of proteins (as indicated on the left of the photographs) are expressed as kilodaltons (kDa).
FIG. 4C (top panel) is a schematic diagram of the amino acid sequence of (i) the MUC1-cytoplasmic domain (MUC1-CD) [amino acids 1-72; SEQ ID NO:2]; (ii) the MUC1-CD fragment [amino acids 1-45; SEQ ID NO:3]; and (iii) the MUC-CD fragment [amino acids 46-72; SEQ ID NO:4]. FIG. 4C (bottom panel) is a photograph of an immunoblot and a photograph of a Coomassie blue-stained electrophoretic gel. GST- and the indicated GST-MUC1-CD fusion proteins bound to glutathione beads were incubated with purified IKKβ. The precipitates were immunoblotted with anti-IKKβ. Input of the GST and GST-MUC1-CD fusion proteins was assessed by Coomassie blue staining. The molecular weights of proteins (as indicated on the left of the photographs) are expressed as kilodaltons (kDa).
FIG. 11A is a pair of photographs of an immunoblot and Coomassie-blue stained gel. GST and the indicated GST-MUC1-CD fusion proteins (MUC1-CD and MUC1-CD(mSRM)) bound to glutathione beads were incubated with IKKβ. The precipitates were immunoblotted (IB) with an anti-IKKβ antibody. Commassie blue staining of the gel was performed to confirm that equal amounts of GST- and GST-MUC1-CD proteins were used in the experiment. The molecular weights of proteins (as indicated on the left of the photographs) are expressed as kilodaltons (kDa).
(§2) In vitro binding assays. Purified GST-MUC1-CD (glutathione s-transferase fused to the MUC1-CD polypeptide) was cleaved with thrombin to remove the GST moiety. […] Adsorbates to glutathione-conjugated beads were analyzed by immunoblotting.

The target of test [3] is IKKβ-IKKγ complexes (Homo sapiens, UniProt O14920+Q9Y6K9). Nature of the test: In vitro association of IKKβ with GST-IKKγ in absence and presence of MUC1-CD proteins. The settings on record: purified IKKβ and GST-IKKγ, with or without added MUC1 protein. In kind it is binding. Here is the method: FIG. 7C is a series of photographs of immunoblots. GST- or GST-IKKγ bound to glutathione beads was incubated with IKKβ in the absence and presence of MUC1-CD protein. The precipitates were immunoblotted (IB) with anti-IKKβ (upper panel). Input amounts of the various proteins were assessed by immunoblotting with the indicated antibodies (lower 3 panels). The molecular weights of proteins (as indicated on the left of the photographs) are expressed as kilodaltons (kDa).
FIG. 12 is a series of photographs of immunoblots. GST, and GST-IKKγ fusion proteins bound to glutathione beads were incubated with MUC1-CD, MUC1-CD(mSRM), or IKKβ proteins as indicated. The GST-pull down precipitates were immunoblotted (IB) with antibodies specific for IKKγ (top panel), IKKβ (middle panel), or MUC1 (bottom panel) as indicated. The molecular weights of proteins (as indicated on the left of the photographs) are expressed as kilodaltons (kDa).
as §2

Test [4] has as its target IKKβ (Homo sapiens, UniProt O14920). Nature of the test: In vitro incubation of IKKβ and IKKγ with ATP, phospho-IKKβ-Ser-181 immunoblot. The test is classed as biochemical. Conditions: MUC1 protein added to the reaction. As for the experimental part: FIG. 13 is a series of photographs of immunoblots. GST, and GST-IKKγ fusion proteins bound to glutathione beads were incubated with MUC1-CD, MUC1-CD(mSRM), or IKKβ proteins as indicated. The GST-pull down precipitates were immunoblotted (IB) with antibodies specific for (from top to bottom) phosphor-IKKβ-Ser-181 (first panel), IKKγ (second panel), IKKβ (third panel), or MUC1 (fourth panel) as indicated. The molecular weights of proteins (as indicated on the left of the photographs) are expressed as kilodaltons (kDa).
Target sequence in this assay (Q9Y6K9 whole entry partner, one chain of several, the tested form may be a part): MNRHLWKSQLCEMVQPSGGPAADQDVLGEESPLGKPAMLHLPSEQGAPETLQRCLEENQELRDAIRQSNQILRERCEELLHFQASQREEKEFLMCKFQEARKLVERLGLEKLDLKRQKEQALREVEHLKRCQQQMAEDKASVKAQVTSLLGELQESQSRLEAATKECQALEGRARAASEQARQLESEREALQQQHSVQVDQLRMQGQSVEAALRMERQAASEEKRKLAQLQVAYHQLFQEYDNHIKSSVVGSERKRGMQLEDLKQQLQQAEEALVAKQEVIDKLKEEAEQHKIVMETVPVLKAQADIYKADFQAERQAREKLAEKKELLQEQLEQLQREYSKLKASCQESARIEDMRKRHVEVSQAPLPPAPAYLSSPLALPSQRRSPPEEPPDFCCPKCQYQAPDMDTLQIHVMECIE

Test [5] deals with T2, MUC1-CD (Homo sapiens, UniProt P15941).
T2 construct: the MUC1-cytoplasmic domain (MUC1-CD) [amino acids 1-72; GST (N, cleaved yes); made in house
T2 sequence (P15941 1184-1255): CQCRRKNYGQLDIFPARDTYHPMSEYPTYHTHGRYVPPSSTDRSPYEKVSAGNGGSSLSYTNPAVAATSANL
Nature of the test: In vitro GST pull-down of GST-IKKβ fragments with MUC1-CD. In kind it is binding. The settings on record: GST-IKKβ (1-458) and GST-IKKβ (458-756) incubated with MUC1-CD. Here is the method:
FIG. 4D is a pair of photographs of immunoblots. GST and the indicated GST-IKKβ fusion proteins bound to glutathione beads were incubated with MUC1-CD. The precipitates were immunoblotted with anti-MUC1-C antibody. The molecular weights of proteins (as indicated on the left of the photographs) are expressed as kilodaltons (kDa).
as §1

Chain of IKKγ (Q9Y6K9 whole entry): as the sequence (Q9Y6K9 whole entry partner, one chain of several, the tested form may be a part) above
Chain of IKKβ-IKKγ complexes (Q9Y6K9 whole entry, one chain of several, the tested form may be a part): as the sequence (Q9Y6K9 whole entry partner, one chain of several, the tested form may be a part) above

Consider “MUC1-CD(46-72): fragment consisting of amino acids 46-72 (SEQ ID NO:4) of the human MUC1 CD (YEKVSAGNGGSSLSYTNPAVAATSANL; listed as Homo sapiens)”, for which the “binding to IKKγ” value in test [1] was “binds to IKKγ”.
Turning to “MUC1-CD(1-45): fragment consisting of amino acids 1-45 (SEQ ID NO:3) of the human MUC1 CD (CQCRRKNYGQLDIFPARDTYHPMSEYPTYHTHGRYVPPSSTDRSP; listed as Homo sapiens)”, the “binding to IKKγ” value in test [1] is “not”. The “binding to IKKβ” value in test [2] was “confers the ability to bind to IKKβ; also recorded: binds to IKKβ”.
Turning to “MUC1-CD(mSRM): MUC1-CD with serine-rich motif SAGNGGSSLS mutated to AAGNGGAAAA (SEQ ID NO:14) (Mutation of the Serine rich motif from human MUC1 CD)”, in test [1], the “binding to IKKγ” value is “attenuated binding to IKKγ”. Moreover, the “interaction between IKKβ and IKKγ” value in test [3] is “substantially less effective”. The “binding to IKKβ” value in test [2] is “no effect”. Moreover, in test [4], the “extent of IKKβ phosphorylation on Ser-181” value is reported as “attenuated”.

B1: IKKβ (1-458): fragment of amino acids 1-458 (SEQ ID NO:7) of human IKKβ (protein, listed as Homo sapiens)
chain: MSWSPSLTTQTCGAWEMKERLGTGGFGNVIRWHNQETGEQIAIKQCRQELSPRNRERWCLEIQIMRRLTHPNVVAARDVPEGMXNLAPNDLPLLAMEYCQGGDLRKYLNQFENCCGLREGAILTLLSDIASALRYLHENRIIHRDLKPENIVLQQGEQRLIHKIIDLGYAKELDQGSLCTSFVGTLQYLAPELLEQQKYTVTVDYWSFGTLAFECITGFRPFLPNWQPVQWHSKVRQKSEVDIVVSEDLNGTVKFSSSLPYPNNLNSVLAERLEKWLQLMLMWHPRQRGTDPTYGPNGCFKALDDILNLKLVHILNMVTGTIHTYPVTEDESLQSLKARIQQDTGIPEEDQELLQEAGLALIPDKPATQCISDGKLNEGHTLDMDLVFLFDNSKITYETQISPRPQPESVSCILQEPKRNLAFFQLRKVWGQVWHSIQTLKEDCNRLQQGQRAAMMNL
modifications: not fully specified; X: residue not identified in the source
Turning to B1, in test [5], the “binding of MUC1 to IKKβ fragments” value is on record as “MUC1 binds directly with the IKKβ N-terminal region”.

The values above are taken from patent publication US8129345B2, “MUC1-IκB kinase complexes and their activities” (Dana-Farber Cancer Institute, Inc., priority 2006, dated 2012).
